Assay results published in paper PMC8764033, “Single-molecule analysis of specificity and multivalency in binding of short linear substrate motifs to the APC/C” (Nature Communications, 2022).

Columns and labels:
[1] = molecular target: Cdc20-activated yeast APC/C with the mutant Apc10 subunit Apc10-4A (S. cerevisiae | S. cerevisiae (endogenous in yeast)) (UniProt P26309); assay: single-molecule off-rate (SMOR) assay, TIRF microscopy; target held on PEG/PEG-biotin glass by NeutrAvidin and biotinylated anti-Strep-Tag II antibody (tag on the activator); dye-labeled ligand (peptide no greater than 1 nM) in buffer C + BSA (20 mM HEPES pH 7.5, 150 mM KCl, 10% glycerol, 0.05% Tween-20, 1 mM DTT) with oxygen scavengers; mean dwell time from an exponential distribution; dwell times below 100 ms noted as single-frame (SF)
Sequence of Cdc20-activated yeast APC/C with the mutant Apc10 subunit Apc10-4A (S. cerevisiae | S. cerevisiae (endogenous in yeast)) (P26309 whole entry, looked up, change not shown, tested part not stated): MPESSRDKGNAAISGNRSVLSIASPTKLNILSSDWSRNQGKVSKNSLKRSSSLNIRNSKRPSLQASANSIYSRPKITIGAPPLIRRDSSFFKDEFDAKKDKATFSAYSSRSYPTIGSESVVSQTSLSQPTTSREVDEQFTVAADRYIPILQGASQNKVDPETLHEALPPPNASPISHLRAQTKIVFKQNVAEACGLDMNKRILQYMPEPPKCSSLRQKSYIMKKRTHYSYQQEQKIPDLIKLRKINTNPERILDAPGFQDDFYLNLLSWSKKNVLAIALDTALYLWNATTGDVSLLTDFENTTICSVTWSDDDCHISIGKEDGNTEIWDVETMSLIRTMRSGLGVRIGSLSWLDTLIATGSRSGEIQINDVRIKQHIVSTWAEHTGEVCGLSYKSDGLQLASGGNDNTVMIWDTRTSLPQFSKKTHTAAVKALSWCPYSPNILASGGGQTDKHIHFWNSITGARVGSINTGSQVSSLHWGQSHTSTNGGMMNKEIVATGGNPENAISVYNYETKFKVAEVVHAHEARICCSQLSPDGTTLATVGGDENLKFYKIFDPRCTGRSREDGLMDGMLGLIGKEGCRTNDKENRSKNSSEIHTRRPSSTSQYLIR

[2] = molecular target: Cdh1-activated yeast APC/C with the mutant Apc10 subunit Apc10-4A (S. cerevisiae | S. cerevisiae (endogenous in yeast)) (UniProt P53197); assay: as above
Sequence of Cdh1-activated yeast APC/C with the mutant Apc10 subunit Apc10-4A (S. cerevisiae | S. cerevisiae (endogenous in yeast)) (P53197 whole entry, looked up, change not shown, tested part not stated): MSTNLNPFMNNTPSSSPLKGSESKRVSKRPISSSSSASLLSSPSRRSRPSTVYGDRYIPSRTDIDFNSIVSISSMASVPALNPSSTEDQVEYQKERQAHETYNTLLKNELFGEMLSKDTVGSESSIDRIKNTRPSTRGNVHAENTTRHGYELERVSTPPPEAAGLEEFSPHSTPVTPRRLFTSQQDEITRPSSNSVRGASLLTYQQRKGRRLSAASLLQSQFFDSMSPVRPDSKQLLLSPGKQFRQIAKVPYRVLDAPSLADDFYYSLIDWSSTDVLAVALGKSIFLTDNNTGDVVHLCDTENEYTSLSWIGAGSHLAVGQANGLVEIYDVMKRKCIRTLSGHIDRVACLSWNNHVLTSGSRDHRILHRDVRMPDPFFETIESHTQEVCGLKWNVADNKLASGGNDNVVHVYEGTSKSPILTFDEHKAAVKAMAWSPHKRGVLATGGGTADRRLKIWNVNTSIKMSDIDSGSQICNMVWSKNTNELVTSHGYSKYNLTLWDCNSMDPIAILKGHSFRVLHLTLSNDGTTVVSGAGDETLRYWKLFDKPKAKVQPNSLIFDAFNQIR

[3] = molecular target: Cdh1-activated yeast APC/C (S. cerevisiae | S. cerevisiae (endogenous in yeast)) (UniProt P53197); assay: fluorescence polarisation + other: single-molecule off-rate (SMOR) assay; inferred constants: kon from the KD of anisotropy and the koff of SMOR; KD for APC/C^Cdh1 from the dwell time with the kon of Cdh1 alone assumed
[4] = molecular target: Cdh1-activated yeast APC/C (S. cerevisiae | S. cerevisiae (endogenous in yeast)) (UniProt P53197); assay: single-molecule off-rate (SMOR) assay, TIRF microscopy; target held on PEG/PEG-biotin glass by NeutrAvidin and biotinylated anti-Strep-Tag II antibody (tag on the activator); dye-labeled ligand (peptide no greater than 1 nM) in buffer C + BSA (20 mM HEPES pH 7.5, 150 mM KCl, 10% glycerol, 0.05% Tween-20, 1 mM DTT) with oxygen scavengers; mean dwell time from an exponential distribution; dwell times below 100 ms noted as single-frame (SF)
[5] = molecular target: Cdc20-activated yeast APC/C (S. cerevisiae | S. cerevisiae (endogenous in yeast)) (UniProt P26309); assay: as above

Sequence of Hsl1 fragment (amino acids 667–872) with C-terminal HaloTag, wild-type degrons (P34244 667-872): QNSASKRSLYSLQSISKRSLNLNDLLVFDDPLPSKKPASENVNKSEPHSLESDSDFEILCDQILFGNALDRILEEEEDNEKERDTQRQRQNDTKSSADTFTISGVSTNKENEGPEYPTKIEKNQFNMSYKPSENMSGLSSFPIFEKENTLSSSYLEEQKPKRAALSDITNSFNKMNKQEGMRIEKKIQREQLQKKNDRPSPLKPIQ

mean dwell time [1] [s] | mean dwell time [2] [s] | Kd [3] [nM] | mean dwell time [4] [s] | mean dwell time [5] [s] | Substance
0.152 | 0.375 | – | – | – | Cy5-labeled Hsl1 D box peptide
0.449 | 75.9 | 4 | 321 | 0.518 | Hsl1 fragment (amino acids 667–872) with C-terminal HaloTag, wild-type degrons (from UniProt P34244 667-872) (domain or fragment)
